Laboratory results: patent US20240261333A1 (published 2024)

Biological target: T1, CD276, endogenous in A375 melanoma cells (human, UniProt Q5ZPR3 29-534, poly-LacNAc glycosylation added by B3GNT2 (sites not given))
T1 construct: whole, on cells; On fixed A375 cells in flow cytometry; In the co-IP it comes from the lysate of these cells; also called B7H3
T1 sequence (looked up): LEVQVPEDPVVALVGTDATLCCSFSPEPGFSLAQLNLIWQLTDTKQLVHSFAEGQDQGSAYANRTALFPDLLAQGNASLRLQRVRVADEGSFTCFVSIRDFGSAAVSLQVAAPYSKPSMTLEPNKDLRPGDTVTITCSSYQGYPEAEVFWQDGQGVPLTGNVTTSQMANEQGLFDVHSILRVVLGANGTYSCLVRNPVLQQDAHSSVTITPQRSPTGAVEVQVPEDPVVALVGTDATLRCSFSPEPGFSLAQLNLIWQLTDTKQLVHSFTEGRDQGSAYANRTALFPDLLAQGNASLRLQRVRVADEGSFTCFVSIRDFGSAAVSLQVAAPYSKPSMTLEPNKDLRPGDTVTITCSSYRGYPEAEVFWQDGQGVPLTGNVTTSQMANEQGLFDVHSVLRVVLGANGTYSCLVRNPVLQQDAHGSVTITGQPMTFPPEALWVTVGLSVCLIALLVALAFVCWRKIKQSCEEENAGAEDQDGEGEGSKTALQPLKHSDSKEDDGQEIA
Test: flow cytometry of TREML2 Fc chimera on fixed A375 cells with CD276 knocked down by CRISPR

B1: TREML2 recombinant Fc chimera protein (R&D Systems 3259-TL-050) (Fc fusion, UniProt Q5T2D2 19-268, looked up)
chain: GPSADSVYTKVRLLEGETLSVQCSYKGYKNRVEGKVWCKIRKKKCEPGFARVWVKGPRYLLQDDAQAKVVNITMVALKLQDSGRYWCMRNTSGILYPLMGFQLDVSPAPQTERNIPFTHLDNILKSGTVTTGQAPTSGPDAPFTTGVMVFTPGLITLPRLLASTRPASKTGYSFTATSTTSQGPRRTMGSQTVTASPSNARDSSAGPESISTKSGDLSTRSPTTGLCLTSRSLLNRLPSMPSIRHQDVYS
notes: Bought reagent; also called TLT2; Fc part of the bought chimera not given
B1: no binding (tested: 25 µg/mL).
